Experimental data: PMC7952577, “Overcoming the design, build, test bottleneck for synthesis of nonrepetitive protein-RNA cassettes”

Key:
Test in all cases: iSort-seq, translational repression in E. coli Top10, 37 C
Settings in all cases: tags: C-GFP (kept); chain copies: 2
PP7 coat protein dlFG = PP7 coat protein dlFG (Pseudomonas phage PP7 (Bacteriophage …, UniProt P03630, ins1-2LA;del68-75insSG))
[1] = target: MS2 coat protein V29I dlFG (Escherichia phage MS2 (Bacteriophage …, UniProt P03612, V30I;del68-81insG))
[2] = target: T1, Qbeta coat protein (strain MX1) (Qbeta virus (strain MX1), UniProt Q9T0R9)
T1 sequence: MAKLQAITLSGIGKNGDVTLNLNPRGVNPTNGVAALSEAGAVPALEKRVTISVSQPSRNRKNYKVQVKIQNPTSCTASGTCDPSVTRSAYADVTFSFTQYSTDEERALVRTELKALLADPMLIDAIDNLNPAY

B1: pp7_wt_5_d1 (ssRNA)
RNA: UUAAUUAAAGAGGAGAAAGGUACCCAUGCUAAGGAGUUUAUAUGGAAACCCUUAUGUGAGCAAGGGCGAGGAGGAUAACAUGGCCAUCAUCAAGGAGUUCAUGCGCUUCAAGGUGCACAUGGAGGG
- binding signal (PP7 coat protein dlFG): 6.62 Rscore (log-likelihood ratio)

B2: ms2_wt_1_d1 (ssRNA)
RNA: UUAAUUAAAGAGGAGAAAGGUACCCAUGCACAUGAGGAUUACCCAUGUUGUGAGCAAGGGCGAGGAGGAUAACAUGGCCAUCAUCAAGGAGUUCAUGCGCUUCAAGGUGCACAUGGAGGG
- binding signal [1]: 21.6 Rscore (log-likelihood ratio)

B3: qb_NOTpre_changeBulge_0004_d2 (ssRNA)
RNA: UUAAUUAAAGAGGAGAAAGGUACCCAUGGCAUGCAUGUCUAAGACAGCAUCUGUGAGCAAGGGCGAGGAGGAUAACAUGGCCAUCAUCAAGGAGUUCAUGCGCUUCAAGGUGCACAUGGAGGG
- binding signal [2]: 9.05 Rscore (log-likelihood ratio)
